What was measured:
[1] = molecular target: T1, Therminator™ DNA polymerase (Thermococcus sp., UniProt Q56366, A485L/D141A/E143A); format: biochemical, Thermococcus species 9° N; conditions: incorporation assay, averaged from three trials
T1 construct: purchased New England BioLabs
From the text: Each nucleotide included a fluorescent moiety constructed on a Cy-5 scaffold. […] In the case of the labeled dUTP analog, the comparison was against dTTP.

[2] = system: Nc1ncnc2c1ncn2[C@H]1C[C@H](O)[C@@H](COP(=O)(O)OP(=O)(O)OP(=O)(O)O)O1; test: purified protein, by the assay type; conditions: other: incorporation assay, Therminator DNA polymerase; averaged from three trials
[3] = system: Nc1ccn([C@H]2C[C@H](O)[C@@H](COP(=O)(O)OP(=O)(O)OP(=O)(O)O)O2)c(=O)n1; test: purified protein, by the assay type; conditions: other: incorporation assay, Therminator DNA polymerase; averaged from three trials
[4] = system: Nc1nc2c(ncn2[C@H]2C[C@H](O)[C@@H](COP(=O)(O)OP(=O)(O)OP(=O)(O)O)O2)c(=O)[nH]1; test: purified protein, by the assay type; conditions: other: incorporation assay, Therminator DNA polymerase; averaged from three trials

T1 sequence (Q56366 whole entry D141A/E143A/A485L): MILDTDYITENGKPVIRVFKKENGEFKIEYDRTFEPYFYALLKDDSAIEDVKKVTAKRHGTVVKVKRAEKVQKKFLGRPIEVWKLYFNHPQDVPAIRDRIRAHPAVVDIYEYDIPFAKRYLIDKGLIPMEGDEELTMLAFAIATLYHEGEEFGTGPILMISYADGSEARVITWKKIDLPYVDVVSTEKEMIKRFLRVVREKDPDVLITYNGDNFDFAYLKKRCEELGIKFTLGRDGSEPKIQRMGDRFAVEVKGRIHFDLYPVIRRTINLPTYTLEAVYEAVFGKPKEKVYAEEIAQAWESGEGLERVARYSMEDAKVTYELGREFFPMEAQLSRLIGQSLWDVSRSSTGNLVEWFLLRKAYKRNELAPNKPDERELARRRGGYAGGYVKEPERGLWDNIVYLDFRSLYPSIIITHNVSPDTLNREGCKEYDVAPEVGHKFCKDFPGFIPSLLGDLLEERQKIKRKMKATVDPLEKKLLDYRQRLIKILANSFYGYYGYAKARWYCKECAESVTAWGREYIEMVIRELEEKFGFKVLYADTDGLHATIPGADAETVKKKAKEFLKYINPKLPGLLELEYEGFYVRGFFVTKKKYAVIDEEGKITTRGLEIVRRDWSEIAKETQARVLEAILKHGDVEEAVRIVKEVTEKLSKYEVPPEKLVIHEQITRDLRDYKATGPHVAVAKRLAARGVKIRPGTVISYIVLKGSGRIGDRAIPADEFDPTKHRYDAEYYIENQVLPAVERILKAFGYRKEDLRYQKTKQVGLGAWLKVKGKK

Cc1cn([C@H]2C[C@H](O)[C@@H](COP(=O)(O)OP(=O)(O)OP(=O)(O)O)O2)c(=O)[nH]c1=O [dTTP, 2′-deoxythymidine-5′-triphosphate]
Km [1]: 920 nM

Therminator™ DNA polymerase (Thermococcus sp. 9oN-7; A485L/D141A/E143A)
Km [2]: 0.05 µM
Km [3]: 0.82 µM
Km [4]: 0.23 µM
